# Residue numbers refer to the chain shown, from its start. In names and notes the source's numbering stands.
# B1: Q38K/F71L (protein)
# chain: MESSKQKRCRSSVVETIEAPLPLVWSILRSFDKPQAYKRFVKSCTMRSGGGGGKGGEGKGSVRDVTLVSGLPADFSTERLEELDDESHVMVVSIIGGNHRLVNYKSKTKVVASPEDMAKKTVVVESYVVDVPEGTSEEDTIFFVDNIIRYNLTSLAKLTKKMMK
# B2: Q38K/F71L/N98D (protein)
# chain: B1 chain with N98D
# B3: Q38K/F71L/N98D/T135N (protein)
# chain: B1 chain with N98D, T135N
# B4: Q38K/F71L/T135N (protein)
# chain: B1 chain with T135N
# B5: PYL11-K39Q/L66F (protein)
# chain: METSQKYHTCGSTLVQTIDAPLSLVWSILRRFDNPQAYQQFVKTCNLSSGDGGEGSVREVTVVSGFPAEFSRERLDELDDESHVMMISIIGGDHRLVNYRSKTMAFVAADTEEKTVVVESYVVDVPEGNSEEETTSFADTIVGFNLKSLAKLSERVAHLKL
# B6: PYL9-K63Q/L89F (protein)
# chain: MMDGVEGGTAMYGGLETVQYVRTHHQHLCRENQCTSALVKHIKAPLHLVWSLVRRFDQPQKYQPFVSRCTVIGDPEIGSLREVNVKSGFPATTSTERLELLDDEEHILGIKIIGGDHRLKNYSSILTVHPEIIEGRAGTMVIESFVVDVPQGNTKDETCYFVEALIRCNLKSLADVSERLASQDITQ
# B7: PYR1: Arabidopsis thaliana ABA receptor protein PYR1, AT4G17870 (protein, listed as Arabidopsis thaliana)
# chain: MPSELTPEERSELKNSIAEFHTYQLDPGSCSSLHAQRIHAPPELVWSIVRRFDKPQTYKHFIKSCSVEQNFEMRVGCTRDVIVISGLPANTSTERLDILDDERRVTGFSIIGGEHRLTNYKSVTTVHRFEKENRIWTVVLESYVVDMPEGNSEDDTRMFADTVVKLNLQKLATVAEAMARNSGDGSGSQVT
# Assays:
# RD29B-LUC expression [1] = assay: Reconstituted ABA signaling pathway, transient expression in wild-type (Col-0) protoplasts; assay type: cell-based, Arabidopsis; settings: for ABA-dependent induction of RD29B-LUC expression: co-transfected with ABI1, SnRK2.6 and ABF2, without or with 5 μM ABA, 4.5 h
# Procedure: To test whether PYL13 can act as an ABA receptor, the ABA signaling pathway in wild-type protoplasts was reconstituted. Turning now to FIG. 1, wild-type (Col-0) protoplasts were used in both panels A and B. After transfection, the protoplasts were incubated for 4.5 hours under light in the absence of ABA (open bars) or in the presence of 5 μM ABA (closed bars). Error bars indicate s.e.m. (n=3). […] ZmUBQ-GUS was used as the internal control. […] Instead, the ABA signaling pathway was reconstituted by co-expression of PYLs, ABI1, SnRK2.6, and ABF2. […] Therefore, the response of other members of the PYL family would not predict the response of PYL13 expression or over-expression in plants.
# PYL13 interacts with all clade A PP2Cs tested but binds most strongly to PP2CA. To investigate whether PYL13 inhibits PP2Cs in planta, PYL13 was co-expressed with all clade A PP2Cs in wild-type protoplasts, as shown in FIG. 4. Transfections of all PP2Cs together with SnRK2.6 and ABF2 inhibited RD29B-LUC expression to different degrees, see FIG. 4A, and the degree of inhibition was correlated with the intensity of interaction between PP2Cs and SnRK2.6 (Fujii et al., 2009). […] The ABA signaling pathway was reconstituted by co-expression of PYLs, PP2Cs, SnRK2.6, and ABF2. RD29B-LUC was used as the ABA-responsive reporter. ZmUBQ-GUS was used as the internal control. After transfection, protoplasts were incubated for 4.5 h under light in the absence of ABA (open bars) or in the presence of 5 μM ABA (closed bars). Error bars indicate s.e.m. (n=9).
# To investigate the physiological significance of the binding between PYL13 and PYLs in vivo, PYL13 was co-expressed with one of the other PYLs, ABI1, SnRK2.6, and ABF2 in wild-type protoplasts. When the transfected PYL13 plasmid was 2-fold of that of the other PYLs, co-transfections with PYL13 decreased the activity of the ABA-responsive PYLs (FIG. 5E). […] ZmUBQ-GUS was used as the internal control. After transfection, protoplasts were incubated for 4.5 h under light in the absence of ABA (open bars) or in the presence of 5 μM ABA (closed bars). Error bars indicate s.e.m. (n=3).
# The ABA signaling pathway was reconstituted by co-expression of PYL13, PYLs, ABI1, SnRK2.6, and ABF2. […] Error bars indicate s.e.m. (n=3). […] Without wishing to be bound by theory, PYL13 inhibition of other PYLs might result from direct interactions between PYL13 and other PYLs or from competition for the binding sites on PP2Cs.
# (§1) Assays for transient expression in protoplasts were performed as described (Fujii et al., 2009). Leaf strips (0.5 mm) were cut from the middle part of second leaves using a razor blade (VWR SCIENTIFIC) and submerged in 15 mL of enzyme solution containing 20 mM MES, pH 5.7, 1.5% (w/v) cellulase R10 (YAKULT PHARMACEUTICAL INDUSTRY), 0.4% (w/v) macerozyme R10 (YAKULT PHARMACEUTICAL INDUSTRY), 0.4 M mannitol, 20 mM KCl, 10 mM CaCl2, 1 mM 2-mercaptoethanol, and 0.1% BSA. The leaves were vacuum infiltrated for 30 min and then incubated without shaking for 3 h in the dark at room temperature. The enzyme/protoplast solution was diluted with 15 mL of W5 solution (2 mM MES, pH 5.7, 154 mM NaCl, 125 mM CaCl2, and 5 mM KCl) and filtered with a 75-μm nylon mesh. Protoplasts were centrifuged at 100 g for 2 min in a 30-mL round-bottomed tube (SARSTEDT), resuspended in W5 solution, and rested for 30 min at room temperature.
# Before transfection, protoplasts were changed into MMg solution (4 mM MES, pH 5.7, 0.4 M mannitol, and 15 mM MgCl2) to a final concentration of 2×10^5 cells per microliter. Protoplasts (100 μl) were gently and thoroughly mixed with the plasmid DNA mixture (less than 10 μl) and 110 μl of PEG solution (40% w/v PEG-4000, 0.2 M mannitol, and 100 mM CaCl2), incubated for 5 min, washed with 440 μl of W5 solution, and resuspended in 50 μl of WI solution (4 mM MES, pH 5.7, 0.5 M mannitol, and 20 mM KCl). After transfection, protoplasts were incubated in WI solution without ABA or with 5 μM ABA under light. […]
# RD29B-LUC expression [2] = assay: ABA-independent induction of RD29B-LUC in triple mutant protoplasts; assay type: cell-based, Arabidopsis; settings: for ABA-independent RD29B-LUC expression, as share of that in the presence of 5 μM ABA: abi1/hab1/abi2 and abi1hab1pp2ca triple mutant protoplasts, with SnRK2.6 and ABF2
# From the text: The basal RD29B-LUC expression level was elevated in protoplasts co-transfected with PP2CA-PYL13, HAI2-PYL13, or HAI3-PYL13, which is consistent with PYL13 inhibition of these PP2Cs in an ABA-independent manner in vivo (FIG. 4A). To exclude interference by endogenous PP2Cs in wild type protoplasts and to assess the ABA-independent selective inhibition of PP2Cs by PYL13, PYL13 was co-expressed with PP2CA, HAI1, HAI2, and HAI3 in abi1/hab1/abi2 triple mutant protoplasts, as shown in FIG. 4C. After transfection, protoplasts were incubated for 4.5 h under light in the absence of ABA. Error bars indicate s.e.m. (n=3).
# Expression of RD29B-LUC in the absence of ABA was increased in the transfections of PYL9-K63Q/L89F or PYL11-K39Q/L66F together with SnRK2.6 and ABF2 to a considerable level. The ABA-independent RD29B-LUC expression is about 70% of that in the presence of 5 μM ABA in the transfection of PYL11-K39Q/L66F, while about 30˜60% in the transfection of PYL9-K63Q/L89F (FIG. 4). […] RD29B-LUC was used as the ABA-responsive reporter. ZmUBQ-GUS was used as the internal control. After transfection, protoplasts were incubated for 4.5 h under light in the absence of ABA (open bars) or in the presence of 5 μM ABA (closed bars). Error bars indicate s.e.m. (n=4).
# as §1
# Before transfection, protoplasts were changed into MMg solution (4 mM MES, pH 5.7, 0.4 M mannitol, and 15 mM MgCl2) to a final concentration of 2×10^5 cells per microliter. Protoplasts (100 μl) were gently and thoroughly mixed with the plasmid DNA mixture (less than 10 μl) and 110 μl of PEG solution (40% w/v PEG-4000, 0.2 M mannitol, and 100 mM CaCl2), incubated for 5 min, washed with 440 μl of W5 solution, and resuspended in 50 μl of WI solution (4 mM MES, pH 5.7, 0.5 M mannitol, and 20 mM KCl). After transfection, protoplasts were incubated in WI solution without ABA or with 5 μM ABA under light. The protoplasts were harvested after 4.5 h, frozen in liquid N2, and stored at −80° C.
# The frozen protoplasts were resuspended in 50 μl of protoplast lysis buffer containing 2.5 mM Tris-phosphate, pH 7.8, 1 mM DTT, 2 mM DACTAA, 10% (v/v) glycerol, and 1% (v/v) Triton X-100. Protoplast lysates (20 μl) were mixed with 100 μl of LUC mix (PROMEGA), and LUC luminescence was measured with a plate reader (Wallac VICTOR2 plate reader).
# Protoplast lysates (2 μl) were mixed with 10 μl of 4-methylumbelliferyl β-D-glucuronide (MUG) substrate mix (10 mM Tris-HCl, pH 8, 1 mM MUG [GOLD BIOTECHNOLOGY], and 2 mM MgCl2). After the mixture was kept for 30 min at 37° C., 100 μl of 0.2 M Na2CO3 was added, and GUS activity was measured using the plate reader with the excitation filter at 355 nm and the emission filter at 460 nm.
# All the plasmids used in this assay were purified with the QIAGEN Plasmid Maxi Kit or the QIAGEN Plasmid Midi Kit. The quality of plasmid DNA is important for high transfection efficiency. RD29B::LUC (7 μg of plasmid per transfection) was used as the ABA-responsive reporter. ZmUBQ::GUS (2 μg of plasmid per transfection) was used as the internal control. […]
Molecule,ABA-dependent induction of RD29B-LUC expression (RD29B-LUC expression [1]),"RD29B-LUC expression (RD29B-LUC expression [1]; with ABI1, HAB1, HAB2, HAI1, and AHG1, SnRK2.6 and ABF2)","expression of RD29B-LUC in the absence of ABA (RD29B-LUC expression [2]; abi1/hab1/abi2 protoplasts, with PP2CA, HAI2, or HAI3, SnRK2.6 and ABF2)","ABA-independent RD29B-LUC expression, as share of that in the presence of 5 μM ABA (RD29B-LUC expression [2])"
B1,could partially confer,conferred an ABA-dependent induction,,
B2,could partially confer,,,
B3,could partially confer,,abolished,
B4,could partially confer,,,
B5,cannot antagonize,,,about 70%
B6,cannot antagonize,,,30˜60%
B7,restored RD29B-LUC expression,,,

# Source: US9518268B2, “Drought tolerant transgenic plants and method of making same” (PURDUE RESEARCH FOUNDATION, priority 2013, dated 2016)
